Assay results taken from US12048733B2, “Method of treatment” (THE BIONICS INSTITUTE OF AUSTRALIA, priority 2017, dated 2024).

B1: brain derived neurotrophic factor (protein, UniProt P23560 19-247, looked up)
Neurotrophic factor BDNF …: APMKEANIRGQGGLAYPGVRTHGTLESVNGPKAGSRGLTSLADTFEHVIEELLDEDQKVRPNEENNKDADLYTSRVMLSSQVPLEPPLLFLLEEYKNYLDAANMSMRVRRHSDPARRGELSVCDSISEWVTAADKKTAVDMSGGTVTVLEKVPVSKGQLKQYFYETKCNPMGYTKEGCRGIDKRHWNSQCRTTQSYVRALTMDSKKRIGWRFIRIDTSCVCTLTIKRGR
notes: neurotrophin; BDNF Human Protein (Geneway)

What was measured:
[1] = Clearance of radiolabelled neurotrophin-3 by whole cochlear gamma counts; assay type: in vivo
Description: In vivo studies were carried out to determine the drug payload and clearance of neurotrophin delivered in a supraparticle implanted into the ear after 4 hr, 3 day and 7 days of implantation. The objective was to determine the amount of neurotrophin remaining in the cochlea over time.
1 SP containing radiolabelled neurotrophin-3 was implanted into each cochlea. Cochleae were harvested following 4 hrs (n=5), 3 d (n=7) or 7 d (n=4). Whole cochlear gamma counts were measured to determine the clearance of neurotrophin-3 over time. After 1 week of implantation each SP contained ˜2 ug of neurotrophin-3 (˜40%) of initial loaded amount.
Further experiments (n=2) were carried out to examine clearance of neurotrophin-3 following round window delivery. 3 days after implantation—whole cochlear measurements were again used to determine the clearance of neurotrophin-3 from the round window membrane.

[2] = BDNF perilymph concentration by ELISA after SP implantation; assay type: in vivo; settings: 2 electrosprayed SPs loaded with BDNF, n=2
Description: Next, 2 SPs produced by electrospraying were loaded with BDNF and placed inside the cochlea. Serial perilymph samples (1 ul samples) were obtained from the apex of the cochlea at three days and one week post implantation (sampling techniques described in Plontke et al. (2007) Laryngoscope. 117:1191-1198) and samples were analysed using an ELISA.

[3] = after 1 week of implantation, 1 SP intracochlear

Molecule	neurotrophin-3 remaining ([1]; 3 days after implantation, round window delivery)	neurotrophin-3 remaining ([1]; 3 days, intracochlear delivery)	amount of neurotrophin-3 remaining per SP [1, 3]	neurotrophin-3 remaining (% of initial loaded amount) [1, 3]	peak BDNF perilymph concentration inside the cochlea ([2]; after 3 days)	peak BDNF perilymph concentration inside the cochlea ([2]; after 7 days)
neurotrophin-3	47.4%	56%	~2 µg	~40%		
B1					1707 ng/mL	775 ng/mL
